Results: patent US20130336893A1 (Sanofi, published 2013)
*1 amine or outer side, *2 acyl side, *3 side chain or, on linkers, in order; H or OH if unused. Where no end group is shown, it is not given here. Side-chain parts run from the residue outwards. [ ]: non-standard residue; d: D form. The star is where a group is joined. γGlu = O=C(O)[C@H](CCC(=O)[*:2])N[*:1]; Stearoyl = CCCCCCCCCCCCCCCCCC(=O)*; Palmitoyl = CCCCCCCCCCCCCCCC(=O)*; Orn = NCCC[C@H](N)C(=O)O; Dab = NCC[C@H](N)C(=O)O; Dap = NC[C@H](N)C(=O)O; Aib = CC(C)(N)C(=O)O

How the values were obtained:
human GLP-1 receptor = human GLP-1 receptor (human, UniProt P43220 24-463); assay: cell-based or functional assay
human glucagon receptor = human glucagon receptor (human, UniProt P47871 26-477); assay: cell-based or functional assay
human glucagon receptor, sequence (P47871 26-477): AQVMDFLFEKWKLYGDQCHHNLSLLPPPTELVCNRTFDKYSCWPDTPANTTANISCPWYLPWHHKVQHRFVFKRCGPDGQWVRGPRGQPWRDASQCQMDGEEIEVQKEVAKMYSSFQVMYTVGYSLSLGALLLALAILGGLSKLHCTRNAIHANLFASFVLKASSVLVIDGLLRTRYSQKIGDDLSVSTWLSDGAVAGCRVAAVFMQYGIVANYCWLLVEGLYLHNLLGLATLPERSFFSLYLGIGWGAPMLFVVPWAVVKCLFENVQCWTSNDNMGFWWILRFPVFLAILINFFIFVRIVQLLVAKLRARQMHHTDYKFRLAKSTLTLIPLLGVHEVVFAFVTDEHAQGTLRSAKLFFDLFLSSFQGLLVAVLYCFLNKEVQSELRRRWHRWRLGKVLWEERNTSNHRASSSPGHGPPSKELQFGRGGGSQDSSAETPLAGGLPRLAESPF

H[dS]QGTFTSDLSKQMESRRAQDFIEWLKSGGPSSGAPPPS[Dab]([γGlu-Palmitoyl])-NH2 [SEQ ID NO: (89)]
EC50 hGLP-1R (cAMP formation) (human GLP-1 receptor): 5.9 pM
EC50 hGlucagonR (cAMP formation) (human glucagon receptor): 19.8 pM

H[dS]QGTFTSDLSKQMESRRAQDFIEWLKSGGPSSGAPPPSK(Stearoyl)-NH2 [SEQ ID NO: (85)]
EC50 hGLP-1R (cAMP formation) (human GLP-1 receptor): 6.4 pM
EC50 hGlucagonR (cAMP formation) (human glucagon receptor): 9 pM

H[dS]QGTFTSDLSKQMESRRAQDFIEWLKSGGPSSGAPPPSK([γGlu-γGlu-Palmitoyl])-NH2 [SEQ ID NO: (97)]
EC50 hGLP-1R (cAMP formation) (human GLP-1 receptor): 4.7 pM
EC50 hGlucagonR (cAMP formation) (human glucagon receptor): 36.3 pM

B1: SEQ ID NO: (88) (peptide)
peptide: H[dS]QGTFTSDLSKQMESRRAQDFIEWLKSGGPSSGAPPPS[Orn]([γGlu-Palmitoyl])-NH2
modifications: N-terminus assumed
SMILES: CCCCCCCCCCCCCCCC(=O)N[C@@H](CCC(=O)NCCC[C@H](NC(=O)[C@H](CO)NC(=O)[C@@H]1CCCN1C(=O)[C@@H]1CCCN1C(=O)[C@@H]1CCCN1C(=O)[C@H](C)NC(=O)CNC(=O)[C@H](CO)NC(=O)[C@H](CO)NC(=O)[C@@H]1CCCN1C(=O)CNC(=O)CNC(=O)[C@H](CO)NC(=O)[C@H](CCCCN)NC(=O)[C@H](CC(C)C)NC(=O)[C@H](Cc1c[nH]c2ccccc12)NC(=O)[C@H](CCC(=O)O)NC(=O)[C@@H](NC(=O)[C@H](Cc1ccccc1)NC(=O)[C@H](CC(=O)O)NC(=O)[C@H](CCC(N)=O)NC(=O)[C@H](C)NC(=O)[C@H](CCCNC(=N)N)NC(=O)[C@H](CCCNC(=N)N)NC(=O)[C@H](CO)NC(=O)[C@H](CCC(=O)O)NC(=O)[C@H](CCSC)NC(=O)[C@H](CCC(N)=O)NC(=O)[C@H](CCCCN)NC(=O)[C@H](CO)NC(=O)[C@H](CC(C)C)NC(=O)[C@H](CC(=O)O)NC(=O)[C@H](CO)NC(=O)[C@@H](NC(=O)[C@H](Cc1ccccc1)NC(=O)[C@@H](NC(=O)CNC(=O)[C@H](CCC(N)=O)NC(=O)[C@@H](CO)NC(=O)[C@@H](N)Cc1c[nH]cn1)[C@@H](C)O)[C@@H](C)O)[C@@H](C)CC)C(N)=O)C(=O)O
EC50 hGLP-1R (cAMP formation) (human GLP-1 receptor): 5.1 pM
EC50 hGlucagonR (cAMP formation) (human glucagon receptor): 18.2 pM

B2: SEQ ID NO: (90) (peptide)
peptide: H[dS]QGTFTSDLSKQMESRRAQDFIEWLKSGGPSSGAPPPS[Dap]([γGlu-Palmitoyl])-NH2
modifications: N-terminus assumed
SMILES: CCCCCCCCCCCCCCCC(=O)N[C@@H](CCC(=O)NC[C@H](NC(=O)[C@H](CO)NC(=O)[C@@H]1CCCN1C(=O)[C@@H]1CCCN1C(=O)[C@@H]1CCCN1C(=O)[C@H](C)NC(=O)CNC(=O)[C@H](CO)NC(=O)[C@H](CO)NC(=O)[C@@H]1CCCN1C(=O)CNC(=O)CNC(=O)[C@H](CO)NC(=O)[C@H](CCCCN)NC(=O)[C@H](CC(C)C)NC(=O)[C@H](Cc1c[nH]c2ccccc12)NC(=O)[C@H](CCC(=O)O)NC(=O)[C@@H](NC(=O)[C@H](Cc1ccccc1)NC(=O)[C@H](CC(=O)O)NC(=O)[C@H](CCC(N)=O)NC(=O)[C@H](C)NC(=O)[C@H](CCCNC(=N)N)NC(=O)[C@H](CCCNC(=N)N)NC(=O)[C@H](CO)NC(=O)[C@H](CCC(=O)O)NC(=O)[C@H](CCSC)NC(=O)[C@H](CCC(N)=O)NC(=O)[C@H](CCCCN)NC(=O)[C@H](CO)NC(=O)[C@H](CC(C)C)NC(=O)[C@H](CC(=O)O)NC(=O)[C@H](CO)NC(=O)[C@@H](NC(=O)[C@H](Cc1ccccc1)NC(=O)[C@@H](NC(=O)CNC(=O)[C@H](CCC(N)=O)NC(=O)[C@@H](CO)NC(=O)[C@@H](N)Cc1c[nH]cn1)[C@@H](C)O)[C@@H](C)O)[C@@H](C)CC)C(N)=O)C(=O)O
EC50 hGLP-1R (cAMP formation) (human GLP-1 receptor): 4.9 pM
EC50 hGlucagonR (cAMP formation) (human glucagon receptor): 33.6 pM

H[dS]QGTFTSDLSKQMESRRAQDFIEWLKSGGPSSGAPPPSK([γGlu-tocopheryl‑succinyl])-NH2 [SEQ ID NO: (86)]
EC50 hGLP-1R (cAMP formation) (human GLP-1 receptor): 28.1 pM
EC50 hGlucagonR (cAMP formation) (human glucagon receptor): 21.8 pM

H[dS]QGTFTSDLSKQMESRRAQDFIEWLK[Aib]GGPSSGAPPPK(Palmitoyl)-NH2 [SEQ ID NO: (81)]
EC50 hGLP-1R (cAMP formation) (human GLP-1 receptor): 19.7 pM
EC50 hGlucagonR (cAMP formation) (human glucagon receptor): 29.3 pM

Ac-H[dS]QGTFTSDLSKQMESRRAQDFIEWLKSGGPSSGAPPPSK([γGlu-Palmitoyl])-NH2 [SEQ ID NO: (83)]
EC50 hGLP-1R (cAMP formation) (human GLP-1 receptor): 369 pM
EC50 hGlucagonR (cAMP formation) (human glucagon receptor): 375 pM

H[dS]QGTFTSDLSKQMESRRAQDFIEWLKSGGPSSGAPPPSK([γGlu-aleuritolyl])-NH2 [SEQ ID NO: (93)]
EC50 hGLP-1R (cAMP formation) (human GLP-1 receptor): 188 pM
EC50 hGlucagonR (cAMP formation) (human glucagon receptor): 1870 pM

H[dS]QGTFTSDLSKQMESRRAQDFIEWLKSGGPSSGAPPPSK([γGlu-Stearoyl])-NH2 [SEQ ID NO: (84)]
EC50 hGLP-1R (cAMP formation) (human GLP-1 receptor): 3.9 pM
EC50 hGlucagonR (cAMP formation) (human glucagon receptor): 13.8 pM

B3: SEQ ID NO: (92) (peptide)
peptide: H[dS]QGTFTSDLSKQMESRRAQDFIEWLKEGGPSSGRPPPSK([γGlu-Palmitoyl])-NH2
modifications: N-terminus assumed
SMILES: CCCCCCCCCCCCCCCC(=O)N[C@@H](CCC(=O)NCCCC[C@H](NC(=O)[C@H](CO)NC(=O)[C@@H]1CCCN1C(=O)[C@@H]1CCCN1C(=O)[C@@H]1CCCN1C(=O)[C@H](CCCNC(=N)N)NC(=O)CNC(=O)[C@H](CO)NC(=O)[C@H](CO)NC(=O)[C@@H]1CCCN1C(=O)CNC(=O)CNC(=O)[C@H](CCC(=O)O)NC(=O)[C@H](CCCCN)NC(=O)[C@H](CC(C)C)NC(=O)[C@H](Cc1c[nH]c2ccccc12)NC(=O)[C@H](CCC(=O)O)NC(=O)[C@@H](NC(=O)[C@H](Cc1ccccc1)NC(=O)[C@H](CC(=O)O)NC(=O)[C@H](CCC(N)=O)NC(=O)[C@H](C)NC(=O)[C@H](CCCNC(=N)N)NC(=O)[C@H](CCCNC(=N)N)NC(=O)[C@H](CO)NC(=O)[C@H](CCC(=O)O)NC(=O)[C@H](CCSC)NC(=O)[C@H](CCC(N)=O)NC(=O)[C@H](CCCCN)NC(=O)[C@H](CO)NC(=O)[C@H](CC(C)C)NC(=O)[C@H](CC(=O)O)NC(=O)[C@H](CO)NC(=O)[C@@H](NC(=O)[C@H](Cc1ccccc1)NC(=O)[C@@H](NC(=O)CNC(=O)[C@H](CCC(N)=O)NC(=O)[C@@H](CO)NC(=O)[C@@H](N)Cc1c[nH]cn1)[C@@H](C)O)[C@@H](C)O)[C@@H](C)CC)C(N)=O)C(=O)O
EC50 hGLP-1R (cAMP formation) (human GLP-1 receptor): 6 pM
EC50 hGlucagonR (cAMP formation) (human glucagon receptor): 38 pM

HSQGTFTSDLSKQMEERRAQDFIEWLKNGGPSSGAPPPS-NH2 [SEQ ID NO: (15)]
EC50 hGLP-1R (cAMP formation) (human GLP-1 receptor): 35.2 pM
EC50 hGlucagonR (cAMP formation) (human glucagon receptor): 538 pM

GH[dS]QGTFTSDLSKQMESRRAQDFIEWLKSGGPSSGAPPPSK([γGlu-Palmitoyl])-NH2 [SEQ ID NO: (82)]
EC50 hGLP-1R (cAMP formation) (human GLP-1 receptor): 2590 pM
EC50 hGlucagonR (cAMP formation) (human glucagon receptor): 5520 pM

B4: SEQ ID NO: (80) (peptide)
peptide: H[dS]QGTFTSDLSKQMESRRAQDFIEWLK[Aib]GGPSSGAPPPK([γGlu-Palmitoyl])-NH2
modifications: N-terminus assumed
SMILES: CCCCCCCCCCCCCCCC(=O)N[C@@H](CCC(=O)NCCCC[C@H](NC(=O)[C@@H]1CCCN1C(=O)[C@@H]1CCCN1C(=O)[C@@H]1CCCN1C(=O)[C@H](C)NC(=O)CNC(=O)[C@H](CO)NC(=O)[C@H](CO)NC(=O)[C@@H]1CCCN1C(=O)CNC(=O)CNC(=O)C(C)(C)NC(=O)[C@H](CCCCN)NC(=O)[C@H](CC(C)C)NC(=O)[C@H](Cc1c[nH]c2ccccc12)NC(=O)[C@H](CCC(=O)O)NC(=O)[C@@H](NC(=O)[C@H](Cc1ccccc1)NC(=O)[C@H](CC(=O)O)NC(=O)[C@H](CCC(N)=O)NC(=O)[C@H](C)NC(=O)[C@H](CCCNC(=N)N)NC(=O)[C@H](CCCNC(=N)N)NC(=O)[C@H](CO)NC(=O)[C@H](CCC(=O)O)NC(=O)[C@H](CCSC)NC(=O)[C@H](CCC(N)=O)NC(=O)[C@H](CCCCN)NC(=O)[C@H](CO)NC(=O)[C@H](CC(C)C)NC(=O)[C@H](CC(=O)O)NC(=O)[C@H](CO)NC(=O)[C@@H](NC(=O)[C@H](Cc1ccccc1)NC(=O)[C@@H](NC(=O)CNC(=O)[C@H](CCC(N)=O)NC(=O)[C@@H](CO)NC(=O)[C@@H](N)Cc1c[nH]cn1)[C@@H](C)O)[C@@H](C)O)[C@@H](C)CC)C(N)=O)C(=O)O
EC50 hGLP-1R (cAMP formation) (human GLP-1 receptor): 10.8 pM
EC50 hGlucagonR (cAMP formation) (human glucagon receptor): 38.1 pM

B5: SEQ ID NO: (91) (peptide)
peptide: H[dS]QGTFTSDLSKQMESRRARLFIEWLKSGGPSSGAPPPSK([γGlu-Palmitoyl])-NH2
modifications: N-terminus assumed
SMILES: CCCCCCCCCCCCCCCC(=O)N[C@@H](CCC(=O)NCCCC[C@H](NC(=O)[C@H](CO)NC(=O)[C@@H]1CCCN1C(=O)[C@@H]1CCCN1C(=O)[C@@H]1CCCN1C(=O)[C@H](C)NC(=O)CNC(=O)[C@H](CO)NC(=O)[C@H](CO)NC(=O)[C@@H]1CCCN1C(=O)CNC(=O)CNC(=O)[C@H](CO)NC(=O)[C@H](CCCCN)NC(=O)[C@H](CC(C)C)NC(=O)[C@H](Cc1c[nH]c2ccccc12)NC(=O)[C@H](CCC(=O)O)NC(=O)[C@@H](NC(=O)[C@H](Cc1ccccc1)NC(=O)[C@H](CC(C)C)NC(=O)[C@H](CCCNC(=N)N)NC(=O)[C@H](C)NC(=O)[C@H](CCCNC(=N)N)NC(=O)[C@H](CCCNC(=N)N)NC(=O)[C@H](CO)NC(=O)[C@H](CCC(=O)O)NC(=O)[C@H](CCSC)NC(=O)[C@H](CCC(N)=O)NC(=O)[C@H](CCCCN)NC(=O)[C@H](CO)NC(=O)[C@H](CC(C)C)NC(=O)[C@H](CC(=O)O)NC(=O)[C@H](CO)NC(=O)[C@@H](NC(=O)[C@H](Cc1ccccc1)NC(=O)[C@@H](NC(=O)CNC(=O)[C@H](CCC(N)=O)NC(=O)[C@@H](CO)NC(=O)[C@@H](N)Cc1c[nH]cn1)[C@@H](C)O)[C@@H](C)O)[C@@H](C)CC)C(N)=O)C(=O)O
EC50 hGLP-1R (cAMP formation) (human GLP-1 receptor): 6.7 pM
EC50 hGlucagonR (cAMP formation) (human glucagon receptor): 121 pM
